B1: Shigella flexneri IpaH7.8 without affinity tag (co-expressed with GSDMB) (enzyme)
chain: MFSVNNTHSSVSCSPSINSNSTSNEHYLRILTEWEKNSSPGEERGIAFNRLSQCFQNQEAVLNLSDLNLTSLPELPKHISALIVENNKLTSLPKLPAFLKELNADNNRLSVIPELPESLTTLSVRSNQLENLPVLPNHLTSLFVENNRLYNLPALPEKLKFLHVYYNRLTTLPDLPDKLEILCAQRNNLVTFPQFSDRNNIRQKEYYFHFNQITTLPESFSQLDSSYRINISGNPLSTRVLQSLQRLTSSPDYHGPQIYFSMSDGQQNTLHRPLADAVTAWFPENKQSDVSQIWHAFEHEEHANTFSAFLDRLSDTVSARNTSGFREQVAAWLEKLSASAELRQQSFAVAADATESCEDRVALTWNNLRKTLLVHQASEGLFDNDTGALLSLGREMFRLEILEDIARDKVRTLHFVDEIEVYLAFQTMLAEKLQLSTAVKEMRFYGVSGVTANDLRTAEAMVRSREENEFTDWFSLWGPWHAVLKRTEADRWAQAEEQKYEMLENEYSQRVADRLKASGLSGDADAEREAGAQVMRETEQQIYRQLTDEVLALRLSENGSRLHHS
notes: only the LRR domain is visible in the map; source: E. coli BL21 (DE3), co-expressed with His6-SUMO-GSDMB, complex purified (Ni-NTA, Hitrap Q, Superdex 200)
B2: human GSDMB isoform 1 construct for cryo-EM, 3C protease site inserted after K239 (uncleaved, full length) (natural protein)
chain: MFSVFEEITRIVVKEMDAGGDMIAVRSLVDADRFRCFHLVGEKRTFFGCRHYTTGLTLMDILDTDGDKWLDELDSGLQGQKAEFQILDNVDSTGELIVRLPKEITISGSFQGFHHQKIKISENRISQQYLATLENRKLKRELPFSFRSINTRENLYLVTETLETVKEETLKSDRQYKFWSQISQGHLSYKHKGQREVTIPPNRVLSYRVKQLVFPNKETMSAGLDIHFRGKTKSFPEGKLEVLFQGPSLGSEDSRNMKEKLEDMESVLKDLTEEKRKDVLNSLAKCLGKEDIRQDLEQRVSEVLISGELHMEDPDKPLLSSLFNAAGVLVEARAKAILDFLDALLELSEEQQFVAEALEKGTLPLLKDQVKSVMEQNWDELASSPPDMDYDPEARILCALYVVVSILLELAEGPTSVSS
notes: human gasdermin B isoform 1 (Q8TAX9-1), full length, with a human rhinovirus 3C protease site (LEVLFQ/GP) inserted after residue K239; The methods say the 3C site is in 'the GSDMB construct used for cryo-EM structural determination'; source: E. coli BL21 (DE3), co-expressed with IpaH7.8, complex purified (Ni-NTA, Hitrap Q, Superdex 200); not shown: His6-SUMO, N-terminal, cleaved

Columns and labels:
[1] = target: human GSDMB (isoform 1, Q8TAX9-1), full length (human); test: ITC; VP-ITC, 20 °C, 25 mM Tris-HCl pH 8.0, 150 mM NaCl; IpaH7.8 (200 μM) injected into GSDMB (10 μM), or IpaH7.8 (625 μM) into hGSDMD or mGSDMD (40 μM); 25 injections; one-site binding model
[2] = target: B2; test: cryo-EM structure; GSDMB-IpaH7.8 complex co-expressed in E. coli and co-purified, 0.5 mg/ml, 25 mM HEPES pH 7.5, 150 mM NaCl; 3.8 Å; conditions: both partners purified
[3] = target: T1, human GSDMD, full length (human), P57764; test: ITC; VP-ITC, 20 °C, 25 mM Tris-HCl pH 8.0, 150 mM NaCl; IpaH7.8 (200 μM) injected into GSDMB (10 μM), or IpaH7.8 (625 μM) into hGSDMD or mGSDMD (40 μM); 25 injections; one-site binding model; conditions: remark: other sources report otherwise
T1 chain: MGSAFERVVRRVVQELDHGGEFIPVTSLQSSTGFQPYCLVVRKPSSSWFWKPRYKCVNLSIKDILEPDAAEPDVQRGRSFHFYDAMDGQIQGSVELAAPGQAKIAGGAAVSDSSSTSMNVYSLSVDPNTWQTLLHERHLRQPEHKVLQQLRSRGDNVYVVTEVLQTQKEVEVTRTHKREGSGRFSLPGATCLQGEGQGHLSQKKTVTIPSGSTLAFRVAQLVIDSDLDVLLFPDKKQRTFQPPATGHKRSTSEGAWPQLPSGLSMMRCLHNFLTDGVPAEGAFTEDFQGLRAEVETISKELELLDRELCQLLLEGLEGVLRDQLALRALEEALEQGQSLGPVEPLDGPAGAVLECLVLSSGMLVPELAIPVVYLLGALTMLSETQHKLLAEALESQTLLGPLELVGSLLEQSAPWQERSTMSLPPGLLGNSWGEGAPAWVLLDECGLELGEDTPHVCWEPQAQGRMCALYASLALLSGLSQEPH

[4] = target: B1; test: cryo-EM structure; GSDMB-IpaH7.8 complex co-expressed in E. coli and co-purified, 0.5 mg/ml, 25 mM HEPES pH 7.5, 150 mM NaCl; 3.8 Å; conditions: both partners purified
[5] = target: the molecule itself; test: cryo-EM structure; GSDMB isoform 1 cleaved by 3C protease on liposomes, pores solubilised with C12E8 and purified on Superose 6; C24 symmetry, 4.96 Å (globular domain 4.48 Å)

## Shigella flexneri IpaH7.8 (wild type), C-terminal 6XHis construct (from UniProt P18014 1-565) (enzyme)
[1]
  Kd: 0.44 µM

## B1
[2]
  stoichiometry N: 1
[3]
  Kd: 20.4 µM

## B2
[4]
  binding result: binds

B3: GSDMB isoform 1 pore subunit (N-terminal domain after 3C protease cleavage) (domain or fragment)
chain: MFSVFEEITRIVVKEMDAGGDMIAVRSLVDADRFRCFHLVGEKRTFFGCRHYTTGLTLMDILDTDGDKWLDELDSGLQGQKAEFQILDNVDSTGELIVRLPKEITISGSFQGFHHQKIKISENRISQQYLATLENRKLKRELPFSFRSINTRENLYLVTETLETVKEETLKSDRQYKFWSQISQGHLSYKHKGQREVTIPPNRVLSYRVKQLVFPNKETMSAGLDIHFRGKTKSFPEGKLEVLFQ
notes: human gasdermin B isoform 1 (Q8TAX9-1), from the start to K239, after which the 3C site was inserted; what is left of the 3C protease site (LEVLFQ/GP) after cleavage; Pores were 24-26-fold symmetric; GSDMB-C was removed by size exclusion; also called GSDMB pore; GSDMB prepore; source: E. coli BL21 (DE3), purified; cleaved by 3C protease on liposomes, pores extracted with C12E8 and purified on …
[5]
  stoichiometry N: 24

From publication PMC10115629, “Structural basis for GSDMB pore formation and its targeting by IpaH7.8” (Nature, 2023)
